In US20020197616A1 (REGENTS OF THE UNIVERSITY OF MICHIGAN, published 2002):

B1: IKKα (enzyme, UniProt O15111 1-745, looked up)
chain: MERPPGLRPGAGGPWEMRERLGTGGFGNVCLYQHRELDLKIAIKSCRLELSTKNRERWCHEIQIMKKLNHANVVKACDVPEELNILIHDVPLLAMEYCSGGDLRKLLNKPENCCGLKESQILSLLSDIGSGIRYLHENKIIHRDLKPENIVLQDVGGKIIHKIIDLGYAKDVDQGSLCTSFVGTLQYLAPELFENKPYTATVDYWSFGTMVFECIAGYRPFLHHLQPFTWHEKIKKKDPKCIFACEEMSGEVRFSSHLPQPNSLCSLVVEPMENWLQLMLNWDPQQRGGPVDLTLKQPRCFVLMDHILNLKIVHILNMTSAKIISFLLPPDESLHSLQSRIERETGINTGSQELLSETGISLDPRKPASQCVLDGVRGCDSYMVYLFDKSKTVYEGPFASRSLSDCVNYIVQDSKIQLPIIQLRKVWAEAVHYVSGLKEDYSRLFQGQRAAMLSLLRYNANLTKMKNTLISASQQLKAKLEFFHKSIQLDLERYSEQMTYGISSEKMLKAWKEMEEKAIHYAEVGVIGYLEDQIMSLHAEIMELQKSPYGRRQGDLMESLEQRAIDLYKQLKHRPSDHSYSDSTEMVKIIVHTVQSQDRVLKELFGHLSKLLGCKQKIIDLLPKVEVALSNIKEADNTVMFMQGKRQKEIWHLLKIACTQSSARSLVGSSLEGAVTPQTSAWLPPTSAEHDHSLSCVVTPQDGETSAQMIEENLNCLGHLSTIIHEANEEQGNSMMNLDWSWLTE
notes: Construct and tag not described for this test
B2: IKKβ (enzyme, UniProt O14920 1-756, looked up)
chain: MSWSPSLTTQTCGAWEMKERLGTGGFGNVIRWHNQETGEQIAIKQCRQELSPRNRERWCLEIQIMRRLTHPNVVAARDVPEGMQNLAPNDLPLLAMEYCQGGDLRKYLNQFENCCGLREGAILTLLSDIASALRYLHENRIIHRDLKPENIVLQQGEQRLIHKIIDLGYAKELDQGSLCTSFVGTLQYLAPELLEQQKYTVTVDYWSFGTLAFECITGFRPFLPNWQPVQWHSKVRQKSEVDIVVSEDLNGTVKFSSSLPYPNNLNSVLAERLEKWLQLMLMWHPRQRGTDPTYGPNGCFKALDDILNLKLVHILNMVTGTIHTYPVTEDESLQSLKARIQQDTGIPEEDQELLQEAGLALIPDKPATQCISDGKLNEGHTLDMDLVFLFDNSKITYETQISPRPQPESVSCILQEPKRNLAFFQLRKVWGQVWHSIQTLKEDCNRLQQGQRAAMMNLLRNNSCLSKMKNSMASMSQQLKAKLDFFKTSIQIDLEKYSEQTEFGITSDKLLLAWREMEQAVELCGRENEVKLLVERMMALQTDIVDLQRSPMGRKQGGTLDDLEEQARELYRRLREKPRDQRTEGDSQEMVRLLLQAIQSFEKKVRVIYTQLSKTVVCKQKALELLPKVEEVVSLMNEDEKTVVRLQEKRQKELWNLLKIACSKVRGPVSGSPDSMNASRLSQPGQLMSQPSTASNSLPEPAKKSEELVAEAHNLCTLLENAIQDTVREQDQSFTALDWSWLQTEEEEHSCLEQAS
notes: as for B1
B3: TRAF-1 (other, UniProt Q13077 1-416, looked up)
chain: MASSSGSSPRPAPDENEFPFGCPPTVCQDPKEPRALCCAGCLSENPRNGEDQICPKCRGEDLQSISPGSRLRTQEKAHPEVAEAGIGCPFAGVGCSFKGSPQSVQEHEVTSQTSHLNLLLGFMKQWKARLGCGLESGPMALEQNLSDLQLQAAVEVAGDLEVDCYRAPCSESQEELALQHFMKEKLLAELEGKLRVFENIVAVLNKEVEASHLALATSIHQSQLDRERILSLEQRVVELQQTLAQKDQALGKLEQSLRLMEEASFDGTFLWKITNVTRRCHESACGRTVSLFSPAFYTAKYGYKLCLRLYLNGDGTGKRTHLSLFIVIMRGEYDALLPWPFRNKVTFMLLDQNNREHAIDAFRPDLSSASFQRPQSETNVASGCPLFFPLSKLQSPKHAYVKDDTMFLKCIVETST
notes: Construct and tag not described
B4: procaspase-9 (enzyme, UniProt P55211 1-416, looked up)
chain: MDEADRRLLRRCRLRLVEELQVDQLWDALLSRELFRPHMIEDIQRAGSGSRRDQARQLIIDLETRGSQALPLFISCLEDTGQDMLASFLRTNRQAAKLSKPTLENLTPVVLRPEIRKPEVLRPETPRPVDIGSGGFGDVGALESLRGNADLAYILSMEPCGHCLIINNVNFCRESGLRTRTGSNIDCEKLRRRFSSLHFMVEVKGDLTAKKMVLALLELAQQDHGALDCCVVVILSHGCQASHLQFPGAVYGTDGCPVSVEKIVNIFNGTSCPSLGGKPKLFFIQACGGEQKDHGFEVASTSPEDESPGSNPEPDATPFQEGLRTFDQLDAISSLPTPSDIFVSYSTFPGFVSWRDPKSGSWYVETLDDIFEQWAHSEDLQSLLLRVANAVSVKGIYKQMPGCFNFLRKKLFFKTS
notes: as for B3
B5: RICKΔCARD (residues 1-374), Flag-tagged (other, not shown: small tags and cut ends)
chain: MNGEAICSALPTIPYHKLADLRYLSRGASGTVSSARHADWRVQVAVKHLHIHTPLLDSERKDVLREAEILHKARFSYILPILGICNEPEFLGIVTEYMPNGSLNELLHRKTEYPDVAWPLRFRILHEIALGVNYLHNMTPPLLHHDLKTQNILLDNEFHVKIADFGLSKWRMMSLSQSRSSKSAPEGGTIIYMPPENYEPGQKSRASIKHDIYSYAVITWEVLSRKQPFEDVTNPLQIMYSVSQGHRPVINEESLPYDIPHRARMISLIESGWAQNPDERPSFLKCLIELEPVLRTFEEITFLEAVIQLKKTKLQSVSSAIHLCDKKKMELSLNIPVNHGPQEESCGSSQLHENSGSPETSRSLPAPQDNDFLS
notes: also called pcDNA3-Flag-RICK(1-374)
B6: TRADD (other, UniProt Q15628 1-312, looked up)
chain: MAAGQNGHEEWVGSAYLFVESSLDKVVLSDAYAHPQQKVAVYRALQAALAESGGSPDVLQMLKIHRSDPQLIVQLRFCGRQPCGRFLRAYREGALRAALQRSLAAALAQHSVPLQLELRAGAERLDALLADEERCLSCILAQQPDRLRDEELAELEDALRNLKCGSGARGGDGEVASAPLQPPVPSLSEVKPPPPPPPAQTFLFQGQPVVNRPLSLKDQQTFARSVGLKWRKVGRSLQRGCRALRDPALDSLAYEYEREGLYEQAFQLLRRFVQAEGRRATLQRLVEALEENELTSLAEDLLGLTDPNGGLA
notes: as for B3
B7: RIP (enzyme, UniProt Q13546 1-671, looked up)
chain: MQPDMSLNVIKMKSSDFLESAELDSGGFGKVSLCFHRTQGLMIMKTVYKGPNCIEHNEALLEEAKMMNRLRHSRVVKLLGVIIEEGKYSLVMEYMEKGNLMHVLKAEMSTPLSVKGRIILEIIEGMCYLHGKGVIHKDLKPENILVDNDFHIKIADLGLASFKMWSKLNNEEHNELREVDGTAKKNGGTLYYMAPEHLNDVNAKPTEKSDVYSFAVVLWAIFANKEPYENAICEQQLIMCIKSGNRPDVDDITEYCPREIISLMKLCWEANPEARPTFPGIEEKFRPFYLSQLEESVEEDVKSLKKEYSNENAVVKRMQSLQLDCVAVPSSRSNSATEQPGSLHSSQGLGMGPVEESWFAPSLEHPQEENEPSLQSKLQDEANYHLYGSRMDRQTKQQPRQNVAYNREEERRRRVSHDPFAQQRPYENFQNTEGKGTAYSSAASHGNAVHQPSGLTSQPQVLYQNNGLYSSHGFGTRPLDPGTAGPRVWYRPIPSHMPSLHNIPVPETNYLGNTPTMPFSSLPPTDESIKYTIYNSTGIQIGAYNYMEIGGTSSSLLDSTNTNFKEEPAAKYQAIFDNTTSLTDKHLDPIRENLGKHWKNCARKLGFTQSQIDEIDHDYERDGLKEKVYQMLQKWVMREGIKGATVGKLAQALHQCSRIDLLSSLIYVSQN
notes: as for B3
B8: Ced-4 (other, UniProt P30429 1-549, looked up)
chain: MLCEIECRALSTAHTRLIHDFEPRDALTYLEGKNIFTEDHSELISKMSTRLERIANFLRIYRRQASELGPLIDFFNYNNQSHLADFLEDYIDFAINEPDLLRPVVIAPQFSRQMLDRKLLLGNVPKQMTCYIREYHVDRVIKKLDEMCDLDSFFLFLHGRAGSGKSVIASQALSKSDQLIGINYDSIVWLKDSGTAPKSTFDLFTDILLMLKSEDDLLNFPSVEHVTSVVLKRMICNALIDRPNTLFVFDDVVQEETIRWAQELRLRCLVTTRDVEISNAASQTCEFIEVTSLEIDECYDFLEAYGMPMPVGEKEEDVLNKTIELSSGNPATLMMFFKSCEPKTFEKMAQLNNKLESRGLVGVECITPYSYKSLAMALQRCVEVLSDEDRSALAFAVVMPPGVDIPVKLWSCVIPVDICSNEEEQLDDEVADRLKRLSKRGALLSGKRMPVLTFKIDHIIHMFLKHVVDAQTIANGISILEQRLLEIGNNNVSVPERHIPSHFQKFRRSSASEMYPKTTEETVIRPEDFPKFMQLHQKFYDSLKNFACC
notes: as for B3
B9: caspase-4 (enzyme, UniProt P49662 1-377, looked up)
chain: MAEGNHRKKPLKVLESLGKDFLTGVLDNLVEQNVLNWKEEEKKKYYDAKTEDKVRVMADSMQEKQRMAGQMLLQTFFNIDQISPNKKAHPNMEAGPPESGESTDALKLCPHEEFLRLCKERAEEIYPIKERNNRTRLALIICNTEFDHLPPRNGADFDITGMKELLEGLDYSVDVEENLTARDMESALRAFATRPEHKSSDSTFLVLMSHGILEGICGTVHDEKKPDVLLYDTIFQIFNNRNCLSLKDKPKVIIVQACRGANRGELWVRDSPASLEVASSQSSENLEEDAVYKTHVEKDFIAFCSSTPHNVSWRDSTMGSIFITQLITCFQKYSWCCHLEEVFRKVQQSFETPRAKAQMPTIERLSMTRYFYLFPGN
notes: as for B3
B10: caspase-1 (enzyme, UniProt P29466 1-404, looked up)
chain: MADKVLKEKRKLFIRSMGEGTINGLLDELLQTRVLNKEEMEKVKRENATVMDKTRALIDSVIPKGAQACQICITYICEEDSYLAGTLGLSADQTSGNYLNMQDSQGVLSSFPAPQAVQDNPAMPTSSGSEGNVKLCSLEEAQRIWKQKSAEIYPIMDKSSRTRLALIICNEEFDSIPRRTGAEVDITGMTMLLQNLGYSVDVKKNLTASDMTTELEAFAHRPEHKTSDSTFLVFMSHGIREGICGKKHSEQVPDILQLNAIFNMLNTKNCPSLKDKPKVIIIQACRGDSPGVVWFKDSVGVSGNLSLPTTEEFEDDAIKKAHIEKDFIAFCSSTPDNVSWRHPTMGSVFIGRLIEHMQEYACSCDVEEIFRKVRFSFEQPDGRAQMPTTERVTLTRCFYLFPGH
notes: as for B3
B11: TRAF-2 (other, UniProt Q12933 1-501, looked up)
chain: MAAASVTPPGSLELLQPGFSKTLLGTKLEAKYLCSACRNVLRRPFQAQCGHRYCSFCLASILSSGPQNCAACVHEGIYEEGISILESSSAFPDNAARREVESLPAVCPSDGCTWKGTLKEYESCHEGRCPLMLTECPACKGLVRLGEKERHLEHECPERSLSCRHCRAPCCGADVKAHHEVCPKFPLTCDGCGKKKIPREKFQDHVKTCGKCRVPCRFHAIGCLETVEGEKQQEHEVQWLREHLAMLLSSVLEAKPLLGDQSHAGSELLQRCESLEKKTATFENIVCVLNREVERVAMTAEACSRQHRLDQDKIEALSSKVQQLERSIGLKDLAMADLEQKVLEMEASTYDGVFIWKISDFARKRQEAVAGRIPAIFSPAFYTSRYGYKMCLRIYLNGDGTGRGTHLSLFFVVMKGPNDALLRWPFNQKVTLMLLDQNNREHVIDAFRPDVTSSSFQRPVNDMNIASGCPLFCPVSKMEAKNSYVRDDAIFIKAIVDLTGL
notes: as for B3

These binders were tested against T1, Nod2 (wild-type, HA-tagged) (human, UniProt Q9HC29 1-1040) (assay: co-immunoprecipitation, HEK293T extracts).
T1 construct: Expressed in HEK293T cells and tested in cell extracts by co-immunoprecipitation; also called Nod2a; wt Nod2; not shown: HA tag; the plasmid is named both pcDNA3-Nod2-HA and pcDNA3-HA-Nod2, so the end that carries the ta
T1 sequence (Q9HC29 whole entry): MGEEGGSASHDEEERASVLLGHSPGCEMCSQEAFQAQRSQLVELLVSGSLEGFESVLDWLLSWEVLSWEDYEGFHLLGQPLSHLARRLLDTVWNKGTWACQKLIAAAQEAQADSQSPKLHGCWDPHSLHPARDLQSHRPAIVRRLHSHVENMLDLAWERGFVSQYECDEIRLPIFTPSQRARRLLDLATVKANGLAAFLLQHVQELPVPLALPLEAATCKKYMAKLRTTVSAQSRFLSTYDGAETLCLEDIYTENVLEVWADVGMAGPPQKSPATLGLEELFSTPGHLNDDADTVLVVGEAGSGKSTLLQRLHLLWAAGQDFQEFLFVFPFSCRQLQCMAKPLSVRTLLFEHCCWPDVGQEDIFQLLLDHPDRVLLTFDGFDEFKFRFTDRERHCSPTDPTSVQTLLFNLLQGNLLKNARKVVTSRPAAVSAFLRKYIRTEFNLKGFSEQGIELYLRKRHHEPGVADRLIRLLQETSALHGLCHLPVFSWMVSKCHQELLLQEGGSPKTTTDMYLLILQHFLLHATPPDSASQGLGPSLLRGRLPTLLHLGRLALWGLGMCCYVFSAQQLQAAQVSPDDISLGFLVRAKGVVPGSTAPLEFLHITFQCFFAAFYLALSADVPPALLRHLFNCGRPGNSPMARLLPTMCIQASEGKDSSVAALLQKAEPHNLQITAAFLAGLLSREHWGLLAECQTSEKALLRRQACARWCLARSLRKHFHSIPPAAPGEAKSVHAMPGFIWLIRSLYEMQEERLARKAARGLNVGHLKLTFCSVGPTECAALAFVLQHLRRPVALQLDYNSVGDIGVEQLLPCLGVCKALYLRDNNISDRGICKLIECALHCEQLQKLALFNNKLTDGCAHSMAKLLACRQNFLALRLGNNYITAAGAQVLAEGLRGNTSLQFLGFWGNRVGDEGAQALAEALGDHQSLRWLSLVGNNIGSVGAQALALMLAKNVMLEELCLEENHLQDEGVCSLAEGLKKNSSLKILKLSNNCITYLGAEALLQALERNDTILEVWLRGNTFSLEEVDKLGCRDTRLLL
From the text: Proteins co-immunoprecipitated with anti-HA antibody were detected with anti-Flag antibody. […] Proteins in total lysate were detected by anti-Flag and anti-HA monoclonal antibody, respectively. […]

binding result	Binder
no binding	B1
no binding	B2
no binding	B3
no binding	B4
no binding	B5
no binding	B6
no binding	B7
no binding	B8
no binding	B9
no binding	B10
no binding	B11
